Measured values reported in article PMC7016869.
Where “and” joins values, the source holds several entries; their conditions need not be identical. Identical values can stand only once.

Key:
[1] = biological target: Exchange protein directly activated by cAMP 1 (EPAC1), recombinant full-length wild-type EPAC1B (human); assay: SAXS; EPAC1 with 1 mM cAMP, no Rap1b, 2.7 mg/mL, 10 mM Tris pH 9, 1 mM EDTA, 10 mM DTT, 500 mM NaCl; monomer to dimer
[2] = biological target: Exchange protein directly activated by cAMP 1 (EPAC1), recombinant full-length wild-type EPAC1B (human); assay: MST; EPAC1-cAMP and Rap1; no further conditions told

C-terminally truncated Rap1b (1-167), sequence (P61224 1-167): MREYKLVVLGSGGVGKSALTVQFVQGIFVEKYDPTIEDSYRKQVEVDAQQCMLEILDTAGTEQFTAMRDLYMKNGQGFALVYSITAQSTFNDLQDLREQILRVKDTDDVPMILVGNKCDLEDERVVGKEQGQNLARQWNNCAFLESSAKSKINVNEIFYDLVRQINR

percent monomer in solution (EOM/polydispersity analysis) [1] [%]	stoichiometry N [1]	Kd [2] [nM]	Substance
5 to 15	1.8 and 2.4 and 2.2	–	Exchange protein directly activated by cAMP 1 (EPAC1), recombinant full-length wild-type EPAC1B (natural protein)
–	–	20 to 60	C-terminally truncated Rap1b (1-167) (from UniProt P61224 1-167) (domain or fragment)
